Target: 2A3-D NKT TCR βL95A, on 5KC hybridoma (mouse)
Assay: flow cytometry on cells

reduction of tetramer binding against the wild type: 10%
Substance: mouse CD1d tetramer loaded with α-galactosylceramide (αGC) (from UniProt P11609 22-336; P01887 21-119) (complex)

From PMC3070541
